Legend:
Ac-RRVR-AMC = test system: T1, Ac-RRVR-AMC
T1 sequence: RRVR

[1] = test system: extracellular domain of VEGF-R2 (Flk1) fused to the Fc domain of mouse IgG
Ac-IEPD-AMC [2] = target: T2, Ac-IEPD-AMC; assay: Michaelis-Menten kinetics of fluorogenic tetrapeptide hydrolysis
T2 chain: XIEPDX

Ac-IEPD-AMC [3] = target: T2, Ac-IEPD-AMC
Ac-IKPD-AMC [4] = target: T3, Ac-IKPD-AMC; assay: Michaelis-Menten kinetics of fluorogenic tetrapeptide hydrolysis
T3 chain: XIKPDX

Ac-IKPD-AMC [5] = target: T3, Ac-IKPD-AMC

extracellular domain of VEGF-R2 (Flk1) fused to the Fc domain of mouse IgG, sequence (chain, as listed by the source): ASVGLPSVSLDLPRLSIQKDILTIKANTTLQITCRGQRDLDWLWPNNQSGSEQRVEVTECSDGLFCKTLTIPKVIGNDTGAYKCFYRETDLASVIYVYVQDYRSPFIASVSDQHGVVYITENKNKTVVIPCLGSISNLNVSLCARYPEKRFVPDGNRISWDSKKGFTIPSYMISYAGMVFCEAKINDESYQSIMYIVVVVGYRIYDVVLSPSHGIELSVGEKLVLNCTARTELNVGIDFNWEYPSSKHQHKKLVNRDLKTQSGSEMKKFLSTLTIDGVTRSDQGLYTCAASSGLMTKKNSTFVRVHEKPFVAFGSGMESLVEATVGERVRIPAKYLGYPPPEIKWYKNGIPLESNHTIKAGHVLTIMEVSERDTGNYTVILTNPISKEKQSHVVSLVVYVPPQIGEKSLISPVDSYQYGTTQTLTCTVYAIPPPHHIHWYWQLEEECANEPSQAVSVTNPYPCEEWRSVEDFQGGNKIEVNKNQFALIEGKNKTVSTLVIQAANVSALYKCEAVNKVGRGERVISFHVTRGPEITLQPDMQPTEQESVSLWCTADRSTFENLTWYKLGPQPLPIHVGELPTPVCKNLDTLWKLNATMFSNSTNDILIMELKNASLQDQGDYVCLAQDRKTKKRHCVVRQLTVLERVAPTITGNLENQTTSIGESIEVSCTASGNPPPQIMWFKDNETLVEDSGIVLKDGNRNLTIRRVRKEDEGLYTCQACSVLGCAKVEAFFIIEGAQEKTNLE

For MT-SP1 mutein CB155 (Y146D/K224F), the “kcat/Km (specificity constant)” value (Ac-RRVR-AMC) was “cut the Ac-RRVR-AMC substrate at 2.2 and 2.3×10^5 M^-1s^-1, respectively”.

In the case of “granzyme B mutein CB06 (I99A/N218A/Y174E)”, the “cleavage of purified VEGFR2-Fc (SDS-PAGE)” value (“cleavage … (SDS-PAGE)” for short) [1] is reported as “The purified VEGFR2-Fc is efficiently cleaved by wild-type and mutant granzyme B ... None of the protease variants (wild-type or mutant) cleave the Fc domain” and the “in vitro cleavage of soluble Flk1-Fc (gel, FIG. 10)” value (“in vitro cleavage” for short) [1] is reported as “Wild-type granzyme B and the listed muteins cleave the VEGFR-Fc receptor”.

“granzyme B mutein CB02 (I99A/N218A/L171E)” was tested, and the “cleavage … (SDS-PAGE)” value [1] was “The purified VEGFR2-Fc is efficiently cleaved by wild-type and mutant granzyme B ... None of the protease variants (wild-type or mutant) cleave the Fc domain” and the “in vitro cleavage” value [1] was “Wild-type granzyme B and the listed muteins cleave the VEGFR-Fc receptor”.

For MT-SP1 mutant N175D, the “cleavage … (SDS-PAGE)” value [1] was “Several mutants (N175D and D217F) cleave the receptor with higher efficiency than wild-type”.

MT-SP1 mutein CB18 (L172D) was tested, and the “cleavage … (SDS-PAGE)” value [1] was “The mutant L172D cleaves full-length VEGFR2 but at a reduced rate compared to the wild-type”.

With “granzyme B mutein CB05 (I99A/N218A/K172D)” the “cleavage … (SDS-PAGE)” value [1] was “The purified VEGFR2-Fc is efficiently cleaved by wild-type and mutant granzyme B ... None of the protease variants (wild-type or mutant) cleave the Fc domain” and the “in vitro cleavage” value [1] was “Wild-type granzyme B and the listed muteins cleave the VEGFR-Fc receptor”.

With MT-SP1 mutant D217F the “cleavage … (SDS-PAGE)” value [1] was “Several mutants (N175D and D217F) cleave the receptor with higher efficiency than wild-type”.

With “granzyme B mutein CB10 (I99A/N218A/R192M)” the “cleavage … (SDS-PAGE)” value [1] was “The purified VEGFR2-Fc is efficiently cleaved by wild-type and mutant granzyme B ... None of the protease variants (wild-type or mutant) cleave the Fc domain” and the “in vitro cleavage” value [1] was “Wild-type granzyme B and the listed muteins cleave the VEGFR-Fc receptor”.

For “granzyme B mutein CB07 (I99A/N218A/Y174D)”, the “cleavage … (SDS-PAGE)” value [1] was “The purified VEGFR2-Fc is efficiently cleaved by wild-type and mutant granzyme B ... None of the protease variants (wild-type or mutant) cleave the Fc domain” and the “in vitro cleavage” value [1] was “Wild-type granzyme B and the listed muteins cleave the VEGFR-Fc receptor”.

B1: rat granzyme B Y174A (protein)
chain: IIGGHEAKPHSRPYMAYLQIMDEYSGSKKCGGFLIREDFVLTAAHCSGSKINVTLGAHNIKEQEKMQQIIPVVKIIPHPAYNSKTISNDIMLLKLKSKAKRSSAVKPLNLPRRNVKVKPGDVCYVAGWGKLGPMGKYSDTLQEVELTVQEDQKCESYLKNAFDKANEICAGDPKIKRASFRGDSGGPLVCKKVAAGIVSYGQNDGSTPRAFTKVSTFLSWIKKTMKKS
For B1, the Km (Ac-IEPD-AMC [2]) was 1000 µM, the kcat (Ac-IEPD-AMC [3]) was 0.87 s⁻¹ and the kcat/Km (Ac-IEPD-AMC [3]) was 470 M⁻¹ s⁻¹.

B2: rat granzyme B N218A (protein)
chain: IIGGHEAKPHSRPYMAYLQIMDEYSGSKKCGGFLIREDFVLTAAHCSGSKINVTLGAHNIKEQEKMQQIIPVVKIIPHPAYNSKTISNDIMLLKLKSKAKRSSAVKPLNLPRRNVKVKPGDVCYVAGWGKLGPMGKYSDTLQEVELTVQEDQKCESYLKNYFDKANEICAGDPKIKRASFRGDSGGPLVCKKVAAGIVSYGQADGSTPRAFTKVSTFLSWIKKTMKKS
For B2, the Km (Ac-IEPD-AMC [2]) was 700 µM, the Km (Ac-IKPD-AMC [4]) was 1800 µM and the kcat (Ac-IEPD-AMC [3]) was 1.6 s⁻¹. For the same molecule, the kcat/Km (Ac-IEPD-AMC [3]) was 2200 M⁻¹ s⁻¹, the kcat (Ac-IKPD-AMC [5]) was 0.38 s⁻¹ and the kcat/Km (Ac-IKPD-AMC [5]) was 220 M⁻¹ s⁻¹.

B3: rat granzyme B N218T (protein)
chain: IIGGHEAKPHSRPYMAYLQIMDEYSGSKKCGGFLIREDFVLTAAHCSGSKINVTLGAHNIKEQEKMQQIIPVVKIIPHPAYNSKTISNDIMLLKLKSKAKRSSAVKPLNLPRRNVKVKPGDVCYVAGWGKLGPMGKYSDTLQEVELTVQEDQKCESYLKNYFDKANEICAGDPKIKRASFRGDSGGPLVCKKVAAGIVSYGQTDGSTPRAFTKVSTFLSWIKKTMKKS
B3 was tested, and the Km (Ac-IEPD-AMC [2]) was 580 µM, the Km (Ac-IKPD-AMC [4]) was 1800 µM and the Kcat (Ac-IEPD-AMC [3]) was 3.6 s⁻¹. It also gave a Kcat/Km (Ac-IEPD-AMC [3]) of 6200 M⁻¹ s⁻¹, a Kcat (Ac-IKPD-AMC [5]) of 1.1 s⁻¹ and a Kcat/Km (Ac-IKPD-AMC [5]) of 600 M⁻¹ s⁻¹.
